Positions count from the first letter of the chain named.
Columns and labels:
Assay in all cases: SPR, antibody captured, C2 as analyte;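 further: biacore SPR at 37 °C, anti-C2 mAbs captured via goat anti-human IgG on CM5 chips, double-referenced sensorgrams fit to a 1:1 kinetic or steady-state model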
human C2 I320A = biological target: T1, human C2 I320A (human, UniProt P06681 21-752)
T1 sequence: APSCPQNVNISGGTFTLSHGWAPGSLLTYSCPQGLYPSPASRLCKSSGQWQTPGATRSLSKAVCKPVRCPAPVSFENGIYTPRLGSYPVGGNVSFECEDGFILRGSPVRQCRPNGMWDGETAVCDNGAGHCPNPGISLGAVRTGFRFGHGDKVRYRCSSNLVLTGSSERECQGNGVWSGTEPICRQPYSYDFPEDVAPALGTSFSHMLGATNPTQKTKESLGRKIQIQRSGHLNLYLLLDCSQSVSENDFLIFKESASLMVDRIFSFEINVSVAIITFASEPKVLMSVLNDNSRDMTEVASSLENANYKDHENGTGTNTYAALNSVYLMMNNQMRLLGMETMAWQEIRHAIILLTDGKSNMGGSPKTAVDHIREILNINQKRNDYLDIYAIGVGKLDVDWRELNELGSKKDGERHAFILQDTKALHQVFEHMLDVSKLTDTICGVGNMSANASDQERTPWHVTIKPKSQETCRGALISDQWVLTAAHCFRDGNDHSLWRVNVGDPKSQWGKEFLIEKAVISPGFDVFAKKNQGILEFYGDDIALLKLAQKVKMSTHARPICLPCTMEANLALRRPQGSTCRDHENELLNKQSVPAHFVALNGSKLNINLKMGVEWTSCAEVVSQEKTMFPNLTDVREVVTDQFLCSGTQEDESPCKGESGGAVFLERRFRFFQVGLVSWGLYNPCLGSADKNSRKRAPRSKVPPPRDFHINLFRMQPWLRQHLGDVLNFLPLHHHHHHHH

human C2 A436S = biological target: T2, human C2 A436S (human, UniProt P06681 21-752)
T2 sequence: T1 sequence with A300I, A416S

human C2 E450A = biological target: T3, human C2 E450A (human, UniProt P06681 21-752)
T3 sequence: T1 sequence with A300I, E430A

human C2 P650A = biological target: T4, human C2 P650A (human, UniProt P06681 21-752)
T4 sequence: T1 sequence with A300I, P630A

B1: RF16-226 (antibody, human IgG4 S228P, lambda)
heavy: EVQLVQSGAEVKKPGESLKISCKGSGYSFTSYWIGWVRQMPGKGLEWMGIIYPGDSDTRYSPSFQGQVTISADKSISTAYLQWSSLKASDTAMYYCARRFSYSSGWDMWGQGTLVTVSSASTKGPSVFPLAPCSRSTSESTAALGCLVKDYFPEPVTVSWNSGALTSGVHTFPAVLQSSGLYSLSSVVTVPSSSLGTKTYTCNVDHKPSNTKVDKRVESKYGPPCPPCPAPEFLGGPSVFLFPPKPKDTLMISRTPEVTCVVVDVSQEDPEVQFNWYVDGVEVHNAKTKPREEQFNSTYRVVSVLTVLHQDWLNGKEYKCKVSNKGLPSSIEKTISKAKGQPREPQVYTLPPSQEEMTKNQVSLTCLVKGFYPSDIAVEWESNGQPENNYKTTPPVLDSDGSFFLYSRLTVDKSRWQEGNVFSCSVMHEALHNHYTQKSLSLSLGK
light: SYELTQPPSVSVSPGQTARITCSGDALTSKYVAWYQQKSGLAPLLVIYEDTRRPSGIPAKFSGSSSGSVATLTISGAHGDDEADYYCYSTDASGHQRVFGGGTKLTVLSQPKAAPSVTLFPPSSEELQANKATLVCLISDFYPGAVTVAWKADGSPVKAGVETTKPSKQSNNKYAASSYLSLTPEQWKSHRSYSCQVTHEGSTVEKTVAPTECS
notes: pH-dependent anti-C2 antibody from a phage display library; also called WT
What does the source list for B1?
Kd (human C2 I320A): 116 nM; Kd (human C2 A436S): 6.2 nM; Kd (human C2 E450A): 4.2 nM; Kd (human C2 P650A): 18.3 nM

Reference: patent publication US20220332804A1 (CSL INNOVATION, published 2022)
